Earlier results as cited in publication PMC9357288.

Molecular target: Hck SH3 (Homo sapiens) (UniProt P08631)
Sequence of UniProt P08631 (P08631 75-141): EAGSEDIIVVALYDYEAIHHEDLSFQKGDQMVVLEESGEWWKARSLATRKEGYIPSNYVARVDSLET

Nef (from UniProt P04324)
Kd: 0.25 µM
